Laboratory results: article PMC6599559 (2019)

Molecular target: eEF-2 (Homo sapiens, UniProt P13639)
Assay: kinase inhibition assay

B1: eEF-2K 562-725 (protein)
chain: GELEAIVGLGLMYSQLPHHILADVSLKETEENKTKGFDYLLKAAEAGDRQSMILVARAFDSGQNLSPDRCQDWLEALHWYNTALEMTDCDEGGEYDGMQDEPRYMMLAREAEMLFTGGYGLEKDPQRSGDLYTQAAEAAMEAMKGRLANQYYQKAEEAWAQMEE
Ki: ~9 µM
